This note sets out measurements from patent US20140213531A1 (POLYPHOR, published 2014).

As usually defined, the % inhibition is the percentage by which the read-out fell short of the control.

Bridges are numbered along the chain shown (N, C = ends). [ ]: non-standard residue; d: D form. Chg = N[C@H](C(=O)O)C1CCCCC1; Nle = CCCC[C@H](N)C(=O)O; Abu = CC[C@H](N)C(=O)O

Common to all, as to experiment: cell-based or functional assay
In assay [1] the target is T1, CathepsinG, from human neutrophils (human, UniProt P08311 21-244).
T1 sequence (looked up): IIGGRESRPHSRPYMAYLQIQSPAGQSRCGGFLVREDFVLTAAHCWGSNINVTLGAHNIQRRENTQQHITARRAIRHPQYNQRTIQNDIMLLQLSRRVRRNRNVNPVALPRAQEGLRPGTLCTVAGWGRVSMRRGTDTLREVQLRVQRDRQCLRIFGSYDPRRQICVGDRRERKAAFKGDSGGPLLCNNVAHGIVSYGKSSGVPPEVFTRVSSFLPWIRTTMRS

Assay [2] concerns the target T2, Elastase from human neutrophils (human, UniProt P08246 30-247, limits assumed).
T2 sequence (looked up): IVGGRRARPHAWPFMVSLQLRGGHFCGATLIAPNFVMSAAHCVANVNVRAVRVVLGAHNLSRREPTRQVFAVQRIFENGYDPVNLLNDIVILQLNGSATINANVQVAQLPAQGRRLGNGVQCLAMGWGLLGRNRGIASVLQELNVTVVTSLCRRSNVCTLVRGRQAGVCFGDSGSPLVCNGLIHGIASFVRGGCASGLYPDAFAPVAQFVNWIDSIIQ

For assay [3], the target named is Trypsin, Iodination grade, from human pancreas (human, UniProt P07477 24-247).

With cyclo(FCTKSDPPICS[dT]P) (disulfide 2-10) [Example 72], in assay [1], the IC50 turned out to be 87 nmol.
For cyclo([Nle]CT[Abu]SIPPQCY[dP]P) (disulfide 2-10) [Example 78], the IC50 in assay [2] came out at 29 nmol.
As to cyclo(FCTKSDPPICS[dN]P) (disulfide 2-10) [Example 69], the IC50 in assay [1] came out at 68 nmol.

B1: Example 77 (peptide)
peptide: XCTTSIPPYCY
HELM: PEPTIDE1{[Nle].C.T.T.S.I.P.P.Y.C.Y.[dP].P}$PEPTIDE1,PEPTIDE1,2:R3-10:R3|PEPTIDE1,PEPTIDE1,1:R1-13:R2$$$V2.0
SMILES: CCCC[C@@H]1NC(=O)[C@@H]2CCCN2C(=O)[C@H]2CCCN2C(=O)[C@H](Cc2ccc(O)cc2)NC(=O)[C@@H]2CSSC[C@H](NC1=O)C(=O)N[C@@H]([C@@H](C)O)C(=O)N[C@@H]([C@@H](C)O)C(=O)N[C@@H](CO)C(=O)N[C@@H]([C@@H](C)CC)C(=O)N1CCC[C@H]1C(=O)N1CCC[C@H]1C(=O)N[C@@H](Cc1ccc(O)cc1)C(=O)N2
In the case of B1, in assay [2], the IC50 was 68 nmol.
As for cyclo(FCTKSDPPICS[dP]L) (disulfide 2-10) [Example 51], the IC50 was 91 nmol in assay [1] and over 100000 nmol in assay [2].

B2: Example 71 (peptide)
peptide: XCTKSDPPXCR
HELM: PEPTIDE1{[O=C([C@@H](N[*:1])C1CCCCC1)[*:2]].C.T.K.S.D.P.P.[Cha].C.R.[dP].P}$PEPTIDE1,PEPTIDE1,2:R3-10:R3|PEPTIDE1,PEPTIDE1,1:R1-13:R2$$$V2.0
SMILES: C[C@@H](O)[C@@H]1NC(=O)[C@@H]2CSSC[C@H](NC(=O)[C@H](CC3CCCCC3)NC(=O)[C@@H]3CCCN3C(=O)[C@@H]3CCCN3C(=O)[C@H](CC(=O)O)NC(=O)[C@H](CO)NC(=O)[C@H](CCCCN)NC1=O)C(=O)N[C@@H](CCCNC(=N)N)C(=O)N1CCC[C@@H]1C(=O)N1CCC[C@H]1C(=O)N[C@@H](C1CCCCC1)C(=O)N2
Turning to B2, in assay [1], the IC50 is 70 nmol.
cyclo([Chg]CTK[AlloThr]DPPYCY[dP]P) (disulfide 2-10) [Example 67]: the IC50 in assay [1] was determined as 48 nmol.

B3: Example 79 (peptide)
peptide: XCTASXPPQCY
HELM: PEPTIDE1{[Nle].C.T.A.S.[Nle].P.P.Q.C.Y.[dP].P}$PEPTIDE1,PEPTIDE1,2:R3-10:R3|PEPTIDE1,PEPTIDE1,1:R1-13:R2$$$V2.0
SMILES: CCCC[C@@H]1NC(=O)[C@@H]2CCCN2C(=O)[C@H]2CCCN2C(=O)[C@H](Cc2ccc(O)cc2)NC(=O)[C@@H]2CSSC[C@H](NC1=O)C(=O)N[C@@H]([C@@H](C)O)C(=O)N[C@@H](C)C(=O)N[C@@H](CO)C(=O)N[C@@H](CCCC)C(=O)N1CCC[C@H]1C(=O)N1CCC[C@H]1C(=O)N[C@@H](CCC(N)=O)C(=O)N2
The molecule B3 showed an IC50 in assay [2] of 66 nmol.

B4: Example 62 (peptide)
peptide: XCTKSDPPICS
HELM: PEPTIDE1{[O=C([C@H](Cc1cccc2ccccc12)N[*:1])[*:2]].C.T.K.S.D.P.P.I.C.S.[dP].P}$PEPTIDE1,PEPTIDE1,2:R3-10:R3|PEPTIDE1,PEPTIDE1,1:R1-13:R2$$$V2.0
SMILES: CC[C@H](C)[C@@H]1NC(=O)[C@@H]2CCCN2C(=O)[C@@H]2CCCN2C(=O)[C@H](CC(=O)O)NC(=O)[C@H](CO)NC(=O)[C@H](CCCCN)NC(=O)[C@H]([C@@H](C)O)NC(=O)[C@@H]2CSSC[C@H](NC1=O)C(=O)N[C@@H](CO)C(=O)N1CCC[C@@H]1C(=O)N1CCC[C@H]1C(=O)N[C@@H](Cc1cccc3ccccc13)C(=O)N2
B4: the IC50 in assay [1] stood at 69 nmol.

B5: Example 70 (peptide)
peptide: XCTKSDPPXCN
HELM: PEPTIDE1{[Nc1ccc(C[C@H](N[*:1])C(=O)[*:2])cc1].C.T.K.S.D.P.P.[Cha].C.N.[dP].P}$PEPTIDE1,PEPTIDE1,2:R3-10:R3|PEPTIDE1,PEPTIDE1,1:R1-13:R2$$$V2.0
SMILES: C[C@@H](O)[C@@H]1NC(=O)[C@@H]2CSSC[C@H](NC(=O)[C@H](CC3CCCCC3)NC(=O)[C@@H]3CCCN3C(=O)[C@@H]3CCCN3C(=O)[C@H](CC(=O)O)NC(=O)[C@H](CO)NC(=O)[C@H](CCCCN)NC1=O)C(=O)N[C@@H](CC(N)=O)C(=O)N1CCC[C@@H]1C(=O)N1CCC[C@H]1C(=O)N[C@@H](Cc1ccc(N)cc1)C(=O)N2
With B5, the IC50 in assay [1] was 69 nmol.

B6: Example 80 (peptide)
peptide: XCTASXPPQCY
HELM: PEPTIDE1{[Nle].C.T.A.S.[CCCCCC[C@H](N[*:1])C(=O)[*:2]].P.P.Q.C.Y.[dP].P}$PEPTIDE1,PEPTIDE1,2:R3-10:R3|PEPTIDE1,PEPTIDE1,1:R1-13:R2$$$V2.0
SMILES: CCCCCC[C@@H]1NC(=O)[C@H](CO)NC(=O)[C@H](C)NC(=O)[C@H]([C@@H](C)O)NC(=O)[C@@H]2CSSC[C@H](NC(=O)[C@H](CCC(N)=O)NC(=O)[C@@H]3CCCN3C(=O)[C@@H]3CCCN3C1=O)C(=O)N[C@@H](Cc1ccc(O)cc1)C(=O)N1CCC[C@@H]1C(=O)N1CCC[C@H]1C(=O)N[C@@H](CCCC)C(=O)N2
In turn, B6 returned an IC50 in assay [2] of 35 nmol.

B7: Example 83 (peptide)
peptide: XCTASXPPQCY
HELM: PEPTIDE1{[Nle].C.T.A.S.[CC(C)CC[C@H](N[*:1])C(=O)[*:2]].P.P.Q.C.Y.[dP].P}$PEPTIDE1,PEPTIDE1,2:R3-10:R3|PEPTIDE1,PEPTIDE1,1:R1-13:R2$$$V2.0
SMILES: CCCC[C@@H]1NC(=O)[C@@H]2CCCN2C(=O)[C@H]2CCCN2C(=O)[C@H](Cc2ccc(O)cc2)NC(=O)[C@@H]2CSSC[C@H](NC1=O)C(=O)N[C@@H]([C@@H](C)O)C(=O)N[C@@H](C)C(=O)N[C@@H](CO)C(=O)N[C@@H](CCC(C)C)C(=O)N1CCC[C@H]1C(=O)N1CCC[C@H]1C(=O)N[C@@H](CCC(N)=O)C(=O)N2
B7 returned an IC50 in assay [2] of 43 nmol.

B8: Example 76 (peptide)
peptide: ICTASLPPQCY
HELM: PEPTIDE1{I.C.T.A.S.L.P.P.Q.C.Y.[dP].P}$PEPTIDE1,PEPTIDE1,2:R3-10:R3|PEPTIDE1,PEPTIDE1,1:R1-13:R2$$$V2.0
SMILES: CC[C@H](C)[C@@H]1NC(=O)[C@@H]2CCCN2C(=O)[C@H]2CCCN2C(=O)[C@H](Cc2ccc(O)cc2)NC(=O)[C@@H]2CSSC[C@H](NC1=O)C(=O)N[C@@H]([C@@H](C)O)C(=O)N[C@@H](C)C(=O)N[C@@H](CO)C(=O)N[C@@H](CC(C)C)C(=O)N1CCC[C@H]1C(=O)N1CCC[C@H]1C(=O)N[C@@H](CCC(N)=O)C(=O)N2
Consider B8, for which the IC50 in assay [2] came out at 71 nmol.

B9: Example 9 (peptide)
peptide: XCTKSDPPICS
HELM: PEPTIDE1{[Nc1ccc(C[C@H](N[*:1])C(=O)[*:2])cc1].C.T.K.S.D.P.P.I.C.S.[dP].P}$PEPTIDE1,PEPTIDE1,2:R3-10:R3|PEPTIDE1,PEPTIDE1,1:R1-13:R2$$$V2.0
SMILES: CC[C@H](C)[C@@H]1NC(=O)[C@@H]2CCCN2C(=O)[C@@H]2CCCN2C(=O)[C@H](CC(=O)O)NC(=O)[C@H](CO)NC(=O)[C@H](CCCCN)NC(=O)[C@H]([C@@H](C)O)NC(=O)[C@@H]2CSSC[C@H](NC1=O)C(=O)N[C@@H](CO)C(=O)N1CCC[C@@H]1C(=O)N1CCC[C@H]1C(=O)N[C@@H](Cc1ccc(N)cc1)C(=O)N2
For the molecule B9, the IC50 in assay [1] is 105 nmol. In addition, the “% inhibition at 100 µM” value in assay [2] is 4.1%; in assay [3], 88.1%.
For cyclo(FCTKSDPPICS[dP]L) (disulfide 2-10) [Example 74], the IC50 was 91 nmol in assay [1] and over 100000 nmol in assay [2]. In assay [3], the “% inhibition at 100 µM” value amounted to 86%.

B10: Example 66 (peptide)
peptide: XCTKSDPPXCY
HELM: PEPTIDE1{[O=C([C@@H](N[*:1])C1CCCCC1)[*:2]].C.T.K.S.D.P.P.[Cha].C.Y.[dP].P}$PEPTIDE1,PEPTIDE1,2:R3-10:R3|PEPTIDE1,PEPTIDE1,1:R1-13:R2$$$V2.0
SMILES: C[C@@H](O)[C@@H]1NC(=O)[C@@H]2CSSC[C@H](NC(=O)[C@H](CC3CCCCC3)NC(=O)[C@@H]3CCCN3C(=O)[C@@H]3CCCN3C(=O)[C@H](CC(=O)O)NC(=O)[C@H](CO)NC(=O)[C@H](CCCCN)NC1=O)C(=O)N[C@@H](Cc1ccc(O)cc1)C(=O)N1CCC[C@@H]1C(=O)N1CCC[C@H]1C(=O)N[C@@H](C1CCCCC1)C(=O)N2
B10 displayed an IC50 in assay [1] of 48 nmol.
